Residue numbers refer to the chain shown, from its start. Names and notes keep the numbering of the source. “Also recorded” adds a separate entry of the source.
B1: mutant luciferase (N50D and I530R): L. accensa luciferase mutant with N50D and I530R, amino acid sequence SEQ ID NO: 2 (protein, listed as Lucidina accensa)
chain: MEEDKNILRGPAPFYPLEDGTAGEQLHRAMKRYALIPGTIAFTDAHAGVDITYSEYFEMACRLAESLKRYGLGLQHRIVVCSENSLQFFMPVVGALFIGVGVAPANDIYNERELLNSMTISQPTLVFCSRKGLQKILNVQKKLPVIQKIIILDTKEDYMGFQSMYSFVDSQLPVGFNEYDYVPDSFDRDQATALIMNSSGSTGLPKGVELNHTSVCVRFSHCRDPVYGNQIIPDTAILSVIPFHHGFGMFTTLGYLICGFRVVLMYRFEEELFLRSLQDYKIQSALLVPTLFSFFAKSTLIDKYDLSNLHEIASGGAPLAKEVGEAVAKRFNLRGIRQGYGLTETTSAVIITPEGDDKPGAVGKVVPFFSAKVVDLDTGKTLGVNQRGELCLKGPMIMKGYVNNPEATNALIDKDGWLHSGDISYWDEDGHFFIVDRLKSLIKYKGYQVPPAELESILLQHPFIFDAGVAGIPDDEAGELPAAVVVLEEGKTMTEKEIMDYVAGQVTTAKRLRGGVVFVDEVPKGLTGKRDARKIREILVKVKKTKSKL
B2: L. Biplagiata (literature sequence): luciferase derived from L. biplagiata, sequence disclosed in the literature (Oba et al. 2010), lysine at position 249 (protein, listed as Lucidina biplagiata)
chain: B1 chain with P13A, D50N, N211T, Y227F, M249K, R530L, V542A
B3: mutant luciferase (E322W): L. accensa luciferase mutant with E322W, amino acid sequence SEQ ID NO: 36 (protein, listed as Lucidina accensa)
chain: B1 chain with D50N, E322W, R530I
B4: mutant luciferase (F294Y, V323L, and E354V): L. accensa luciferase mutant with F294Y, V323L and E354V, amino acid sequence SEQ ID NO: 34 (protein, listed as Lucidina accensa)
chain: B1 chain with D50N, F294Y, V323L, E354V, R530I
B5: P. pyralis luciferase: existing luciferase derived from Photinus pyralis (SEQ ID NO: 33) (protein, listed as Photinus pyralis)
chain: MEDAKNIKKGPAPFYPLEDGTAGEQLHKAMKRYALVPGTIAFTDAHIEVDITYAEYFEMSVRLAEAMKRYGLNTNHRIVVCSENSLQFFMPVLGALFIGVAVAPANDIYNERELLNSMGISQPTVVFVSKKGLQKILNVQKKLPIIQKIIIMDSKTDYQGFQSMYTFVTSHLPPGFNEYDFVPESFDRDKTIALIMNSSGSTGLPKGVALPHRTACVRFSHARDPIFGNQIIPDTAILSVVPFHHGFGMFTTLGYLICGFRVVLMYRFEEELFLRSLQDYKIQSALLVPTLFSFFAKSTLIDKYDLSNLHEIASGGAPLSKEVGEAVAKRFHLPGIRQGYGLTETTSAILITPEGDDKPGAVGKVVPFFEAKVVDLDTGKTLGVNQRGELCVRGPMIMSGYVNNPEATNALIDKDGWLHSGDIAYWDEDEHFFIVDRLKSLIKYKGYQVAPAELESILLQHPNIFDAGVAGLPDDDAGELPAAVVVLEHGKTMTEKEIVDYVASQVTTAKKLRGGVVFVDEVPKGLTGKLDARKIREILIKAKKGGKIAV

How the values were obtained:
HeLa cell = experiment: Luminescence intensity of luciferase expressed in HeLa cell, comparison with P. pyralis luciferase (Example 3); type: cell-based; details: 2 mM D-luciferin, 25° C., 90 min after starting measurement
Protocol: Each of the wild type luciferase derived from L. accensa, the mutant luciferase derived from L. accensa (N50D and 1530R), and the luciferase derived from P. pyralis (SEQ ID NO: 33) was expressed in a HeLa cell, and the luminescence intensity was measured and compared to each other.
Further, since the pF9A vector contains the luciferase gene derived from Renilla reniformis as an internal control, it is possible to obtain the luminescence intensity from the luminescent gene inserted to the multicloning site as a ratio compared to the luminescence intensity emitted by the Renilla luciferase.
Three types of plasmids obtained in such a manner described above were each subjected to gene transfection to a HeLa cell, which has been inoculated in a 24-well plate, by a lipofection method, and 24 hours later, the cells were washed with PBS. To each well of a 24-well plate, 500 μL of 2 mM D-luciferin/CO2 Independent Medium (manufactured by Invitrogen) was added and the luminescence intensity was measured for 90 min by using a Luminescensor (manufactured by ATTO Corporation) under the condition including 25° C. and 1 sec per each well. The luminescence intensity which is obtained at the time point of 90 min after starting the measurement was taken as the luminescence intensity of the wild type luciferase, the mutant luciferase, and P. pyralis luciferase. […] Subsequently, 500 μL of 10 μM coelenterazine/CO2 Independent Medium was added to each well and the luminescence intensity was measured for 30 min by using a Luminescensor under the condition including 25° C. and 1 sec per each well. The luminescence intensity obtained at five minutes after the addition of coelenterazine was taken as luminescence intensity of the Renilla luciferase, which is an internal control. Each of the luminescence intensity from the wild type luciferase, the mutant luciferase, and P. pyralis luciferase was divided by the luminescence intensity of the Renilla luciferase, and the results are illustrated as a graph illustrating the luminescence intensity of each luciferase.

HeLa cells = experiment: Luminescence intensity of luciferase expressed in HeLa cells, comparison with L. biplagiata luciferase (Example 5); type: cell-based; details: 2 mM D-luciferin, 37° C., 90 min
Excerpt: The luminescence intensity from the light emitting reaction using the wild type luciferase derived from L. accensa (SEQ ID NO: 1) was compared to the luminescence intensity from the light emitting reaction using the luciferase derived from L. biplagiata having the literature sequence (SEQ ID NO: 30) or the luciferase derived from L. biplagiata having the cloned sequence (SEQ ID NO: 31). Further, based on the difference between the literature sequence and the cloned sequence, the amino acid residue at position 249 of the amino acid sequence of the wild type luciferase, i.e., methionine, was changed to lysine to prepare the mutant luciferase (M249K), which was then used for the intensity measurement.
With regard to the four types of the luciferase, a nucleic acid containing a gene optimized for mammalian cell expression was given with a Kozak sequence, and then inserted between SgfI and PmeI sites within the multicloning site of pF9A CMV hRLuc neo Flexi vector (manufactured by Promega). Further, since the pF9A vector contains the luciferase gene derived from Renilla reniformis as an internal control in the vector sequence, it is possible to obtain the luminescence intensity from the luminescent gene inserted to the multicloning site as a ratio compared to the luminescence intensity emitted by the Renilla luciferase.
Four types of luciferase plasmids obtained in such a manner described above were each subjected to gene transfection to HeLa cells inoculated in a 48-well plate by a lipofection method, and 24 hours later, the cells were washed with PBS. To each well of a 48-well plate, 500 μL of 2 mM D-luciferin/CO2 Independent Medium (manufactured by Invitrogen) was added and the luminescence intensity was measured for 90 min by using a Luminescensor (manufactured by ATTO Corporation) under the condition including 37° C. and 1 sec per each well. The luminescence intensity which is obtained at the time point of 90 min after starting the measurement was taken as the luminescence intensity of each luciferase. […] Subsequently, 500 μL of 10 μM coelenterazine/CO2 Independent Medium was added to each well and the luminescence intensity was measured for 30 min by using a Luminescensor under the condition including 37° C. and 1 sec per each well. The luminescence intensity obtained at five minutes after the addition of coelenterazine was taken as luminescence intensity of the Renilla luciferase, which is an internal control. Each of the luminescence intensities from the luciferases was divided by the luminescence intensity of the Renilla luciferase, yielding the luminescence intensity of each luciferase. The measurements were carried out multiple times for each luciferase, and the luminescence intensity was obtained as a mean value.

[1] = Stability against degradation: SDS-polyacrylamide gel electrophoresis of lysate of E. coli expressing each luciferase (Example 4); details: lysate of E. coli BL21 (DE3) CodonPlus expressing the luciferase
Protocol: Stability against degradation was determined for the wild type luciferase derived from L. accensa in comparison with a known luciferase derived from L. biplagiata.
The above three genes were introduced into an expression vector and expressed in E. coli. The expression was carried out in the same manner as the Example 2 except that BL21 (DE3) CodonPlus (manufactured by Stratagene Corporation) was used as E. coli strain and the cells were cultured appropriately.
The lysate was prepared from the E. coli expressing each gene, and then subjected to SDS-polyacrylamide gel electrophoresis. It was confirmed that, as a band with the biggest size, a single band is present near 70 kDa for all three kinds of protein. […] Meanwhile, in the luciferase derived from L. biplagiata (i.e., left and right lanes), several bands with a size smaller than 70 kDa were identified.

[2] = Measurement of light emission spectra of purified luciferase under various pH environments; type: biochemical; details: light emission spectra at various pH
Protocol: With use of LumiFlSpectroCapture (manufactured by ATTO Corporation) as an apparatus for measurement, to a solution of 0.1 M citric acid/0.1 M Na2HPO4 buffer (pH 5.5 to 8.0) containing 1 mM of D-luciferin, 2 mM of ATP and 4 mM of MgCl2 the purified enzyme was added at a final concentration of 1 μg/mL, and after 15 seconds of addition of the enzyme luminescence spectra was measured. The measurement results were illustrated in FIG. 1.
After that, each of thus-prepared genes (SEQ ID NOs: 38 and 39) was introduced into pRSET-B vector according to the same method as the Example 2. This vector was transformed to E. coli JM109 (DE3) strain to express the mutant luciferase. Subsequently, the mutant luciferase was purified from E. coli. In addition, under various pH environments, the light emission spectrum was measured according to the same method as the Example 2 from a light emitting reaction catalyzed by the mutant luciferase.

[3] = test system: E. coli JM109 (DE3) strain; experiment: Temperature dependency of luminescence intensity: E. coli colonies heat treated at 55° C., CCD image (Example 7); type: cell-based, Escherichia coli; details: 55° C. for 1 hour, 0.5 mM D-luciferin spray
Protocol: Each of the wild type luciferase gene and two kinds of the mutant gene obtained in the Example 6 was introduced into pRSET-B vector and transformed to E. coli JM109 (DE3) strain to form a colony. Thus-obtained colony was cultured and applied on a LB agar medium to form again the colony for 24 hours. After that, it was subjected to the heat treatment at 55° C. for 1 hour and kept at room temperature for 1 hour. It was then sprayed with a liquid containing 0.5 mM D-luciferin and a photographic image thereof was taken for 1 min by using a CCD camera (trade name: DP70, manufactured by Olympus Corporation).

Row | Molecule | luminescence intensity (divided by luminescence intensity of Renilla luciferase internal control) (HeLa cell) | pH environment giving the highest luminescence intensity [2] [pH] | light emission compared to the wild type luciferase at 55° C. [3] | further results
1 | B1 | 26.5 | – | – | –
2 | B2 | – | – | – | luminescence intensity, mean value (divided by Renilla luciferase intensity) (HeLa cells): 0.12; stability against protein degradation (bands on stained SDS-PAGE gel) [1]: stained in a smear shape in the region of 70 kDa or less
3 | B3 | – | 8.0 | stronger light emission; also recorded: higher luminescence intensity | –
4 | B4 | – | 7.4 | stronger light emission; also recorded: higher luminescence intensity | –
5 | B5 | 6.6 | – | – | –

Source: patent US9328334B2, “Luciferase derived from lucidina accensa” (OLYMPUS CORPORATION, priority 2011, dated 2016)
